The target in this assay is T1, ubiquitin (Ub) (UniProt P0CG48 1-76).
T1 construct: ubiquitin, the mature 76-residue product of the polyubiquitin precursor; Used 15N-labelled or unlabelled; also called monoUb; 15N-labeled Ub; source: E. coli (pET-3a-Ub), purified (acetic acid denaturation, SP XL column, Superdex-75)
The assay can be described thus: NMR titration; 15N-Ub (~0.2 mM) titrated with increasing amount of GB1-tagged UIM peptides; 1H-15N HSQC; 20 mM phosphate, 100 mM NaCl, pH 6.5, 25°C; apparent KD from I13, K48 and L71 of Ub; for AT3-UIM12 a simplified 1:2 fit with the two UIM motifs binding Ub equally. Conditions: both partners purified.

B1: GB1-fused AT3-UIM3 (residues 335-354) (domain or fragment)
chain: SEEDMLQAAVTMSLETVRND
modifications: GB1 carrier and C-terminal His6 left out. The template's polyQ length is not printed. The printed limits are applied to the 361-aa UIM3-containing form, where they span the whole UIM3 and correspond …
For the molecule B1, the Kd is > 3000 µM.

For the origin of these results see publication PMC2951365 (PLoS ONE, 2010).
